Substitutions are numbered along the chain they refer to.
T1: Human PTK7 Protein, His Tag, Acro Biosystems (human, UniProt Q13308 31-704)
T1 construct: Bought recombinant protein; also called CCK4; not shown: His tag
T1 sequence: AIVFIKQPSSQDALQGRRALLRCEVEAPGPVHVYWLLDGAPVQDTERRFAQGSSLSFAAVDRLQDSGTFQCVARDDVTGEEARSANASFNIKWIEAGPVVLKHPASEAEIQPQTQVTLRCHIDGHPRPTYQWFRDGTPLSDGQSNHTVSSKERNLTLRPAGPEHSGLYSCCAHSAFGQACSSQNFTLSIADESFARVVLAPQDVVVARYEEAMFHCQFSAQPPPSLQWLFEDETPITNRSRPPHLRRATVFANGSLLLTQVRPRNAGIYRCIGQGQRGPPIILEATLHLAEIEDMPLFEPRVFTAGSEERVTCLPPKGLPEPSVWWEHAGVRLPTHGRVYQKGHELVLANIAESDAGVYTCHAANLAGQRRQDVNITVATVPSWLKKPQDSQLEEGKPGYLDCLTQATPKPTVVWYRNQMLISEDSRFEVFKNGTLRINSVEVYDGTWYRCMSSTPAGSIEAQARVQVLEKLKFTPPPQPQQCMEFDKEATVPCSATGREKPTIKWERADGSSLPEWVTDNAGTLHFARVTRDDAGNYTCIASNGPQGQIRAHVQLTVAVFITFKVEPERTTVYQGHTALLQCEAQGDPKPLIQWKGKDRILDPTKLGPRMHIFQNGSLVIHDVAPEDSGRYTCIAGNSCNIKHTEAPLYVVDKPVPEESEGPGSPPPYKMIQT

T2: Human PTK7 Protein, His Tag, Acro Biosystems (human, UniProt Q13308 31-704)
T2 construct: Bought recombinant protein; also called CCK4; not shown: His tag
T2 sequence: T1 sequence

B1: MYT11141 (antibody, V domains shown)
VH: EVQLVESGGGLVQPGGSLRLSCTASGFSLSTYAMSWVRQAPGKGLEWVGMIYINDNTYYASWAKGRFTISRDTSKNTVYLQMNSLRAEDTAVYFCARDIGISYYIGVSHWGQGTLVTVSS
VL: EIVMTQSPSTLSASVGDRVIITCQASQSIGTRLSWYQQKPGKAPKLLIYGASKLATGVPSRFSGSGSGAEFTLTISSLQPDDFATYYCLGEYSYTTTDGIAFGQGTKLTVL
notes: MYT9412 HC variant
B2: MYT11170 (antibody, V domains shown)
VH: B1 VH with H109L
VL: B1 VL with T96H
notes: MYT9412 LC variant
B3: MYT11149 (antibody, V domains shown)
VH: B1 VH with H109L
VL: B1 VL with S28H
notes: MYT9412 LC variant
B4: MYT11160 (antibody, V domains shown)
VH: B1 VH with H109L
VL: B1 VL with L54H
notes: MYT9412 LC variant
B5: MYT11164 (antibody, V domains shown)
VH: B1 VH with H109L
VL: B1 VL with G90H
notes: MYT9412 LC variant
B6: MYT11175 (antibody, V domains shown)
VH: B1 VH with H109L
VL: B1 VL with A101H
notes: MYT9412 LC variant
B7: MYT11158 (antibody, V domains shown)
VH: B1 VH with H109L
VL: B1 VL with S52H
notes: MYT9412 LC variant
B8: MYT11145 (antibody, V domains shown)
VH: B1 VH with H109L
VL: B1 VL with Q24H
notes: MYT9412 LC variant
B9: MYT11171 (antibody, V domains shown)
VH: B1 VH with H109L
VL: B1 VL with T97H
notes: MYT9412 LC variant
B10: MYT11156 (antibody, V domains shown)
VH: B1 VH with H109L
VL: B1 VL with G50H
notes: MYT9412 LC variant
B11: MYT11162 (antibody, V domains shown)
VH: B1 VH with H109L
VL: B1 VL with T56H
notes: MYT9412 LC variant
B12: MYT11179 (antibody, V domains shown)
VH: B1 VH with H109L
VL: B1 VL with E91A
notes: MYT9412 LC alanine variant
B13: MYT11168 (antibody, V domains shown)
VH: B1 VH with H109L
VL: B1 VL with Y94H
notes: MYT9412 LC variant
B14: MYT11155 (antibody, V domains shown)
VH: B1 VH with H109L
VL: B1 VL with S34H
notes: MYT9412 LC variant
B15: MYT11161 (antibody, V domains shown)
VH: B1 VH with H109L
VL: B1 VL with A55H
notes: MYT9412 LC variant
B16: MYT11159 (antibody, V domains shown)
VH: B1 VH with H109L
VL: B1 VL with K53H
notes: MYT9412 LC variant
B17: MYT11157 (antibody, V domains shown)
VH: B1 VH with H109L
VL: B1 VL with A51H
notes: MYT9412 LC variant
B18: MYT11147 (antibody, V domains shown)
VH: B1 VH with H109L
VL: B1 VL with S26H
notes: MYT9412 LC variant
B19: MYT11173 (antibody, V domains shown)
VH: B1 VH with H109L
VL: B1 VL with G99H
notes: MYT9412 LC variant
B20: MYT11154 (antibody, V domains shown)
VH: B1 VH with H109L
VL: B1 VL with L33H
notes: MYT9412 LC variant
B21: MYT11169 (antibody, V domains shown)
VH: B1 VH with H109L
VL: B1 VL with T95H
notes: MYT9412 LC variant
B22: MYT11167 (antibody, V domains shown)
VH: B1 VH with H109L
VL: B1 VL with S93H
notes: MYT9412 LC variant
B23: MYT11148 (antibody, V domains shown)
VH: B1 VH with H109L
VL: B1 VL with Q27H
notes: MYT9412 LC variant
B24: MYT11256 (antibody, V domains shown)
VH: EVQLVESGGGLVQPGGSLRLSCTASGIHLSRYSMGWVRQAPGKGLEWVGIISYGGSTYYASWAKGRFTISRDTSKNTVYLQMNSLRAEDTAVYFCARVGYPGYSGYGYAFDAFDPWGQGTLVTVSS
VL: EIVMTQSPSTLSASVGDRVIITCQSSKSVYNDNWLSWYQQKPGKAPKLLIYGASTLASGVPSRFSGSGSGAEFTLTISSLQPDDFATYYCAGGYSSSSDNGFGQGTKLTVL
notes: MYT9792 variant, His at VH 28 (H1 03)
B25: MYT11268 (antibody, V domains shown)
VH: B24 VH with H28D, G54H
VL: B24 VL
notes: MYT9792 variant, His at VH 54 (H2 05)
B26: MYT11254 (antibody, V domains shown)
VH: B24 VH with G26H, H28D
VL: B24 VL
notes: MYT9792 variant, His at VH 26 (H1 01)
B27: MYT11269 (antibody, V domains shown)
VH: B24 VH with H28D, G55H
VL: B24 VL
notes: MYT9792 variant, His at VH 55 (H2 06)
B28: MYT11275 (antibody, V domains shown)
VH: B24 VH with H28D, S61H
VL: B24 VL
notes: MYT9792 variant, His at VH 61 (H2 12)
B29: MYT11266 (antibody, V domains shown)
VH: B24 VH with H28D, S52H
VL: B24 VL
notes: MYT9792 variant, His at VH 52 (H2 03)
B30: MYT11274 (antibody, V domains shown)
VH: B24 VH with H28D, A60H
VL: B24 VL
notes: MYT9792 variant, His at VH 60 (H2 11)
B31: MYT11276 (antibody, V domains shown)
VH: B24 VH with H28D, W62H
VL: B24 VL
notes: MYT9792 variant, His at VH 62 (H2 13)
B32: MYT11277 (antibody, V domains shown)
VH: B24 VH with H28D, A63H
VL: B24 VL
notes: MYT9792 variant, His at VH 63 (H2 14)
B33: MYT11255 (antibody, V domains shown)
VH: B24 VH with I27H, H28D
VL: B24 VL
notes: MYT9792 variant, His at VH 27 (H1 02)
B34: MYT11262 (antibody, V domains shown)
VH: B24 VH with H28D, M34H
VL: B24 VL
notes: MYT9792 variant, His at VH 34 (H1 09)
B35: MYT11273 (antibody, V domains shown)
VH: B24 VH with H28D, Y59H
VL: B24 VL
notes: MYT9792 variant, His at VH 59 (H2 10)
B36: MYT11278 (antibody, V domains shown)
VH: B24 VH with H28D, K64H
VL: B24 VL
notes: MYT9792 variant, His at VH 64 (H2 15)
B37: MYT11270 (antibody, V domains shown)
VH: B24 VH with H28D, S56H
VL: B24 VL
notes: MYT9792 variant, His at VH 56 (H2 07)
B38: MYT11265 (antibody, V domains shown)
VH: B24 VH with H28D, I51H
VL: B24 VL
notes: MYT9792 variant, His at VH 51 (H2 02)
B39: MYT11260 (antibody, V domains shown)
VH: B24 VH with H28D, Y32H
VL: B24 VL
notes: MYT9792 variant, His at VH 32 (H1 07)

What follows are binders tested against T1, Human PTK7 Protein, His Tag, Acro … (assay: BLI, anti-human Fc capture, 50 nM PTK7; 2 = substantially similar binding relative to parent).

binding result | Binder
binds | B1
binds | B2
binds | B3
binds | B4
binds | B5
binds | B6
binds | B7
binds | B8
binds | B9
binds | B10
binds | B11
binds | B12
binds | B13
binds | B14
binds | B15
binds | B16
binds | B17
binds | B18
binds | B19
binds | B20
binds | B21
binds | B22
binds | B23

What follows are binders tested against T2, Human PTK7 Protein, His Tag, Acro … in the same assay as above.

binding result | Binder
binds | B24
binds | B25
binds | B26
binds | B27
binds | B28
binds | B29
binds | B30
binds | B31
binds | B32
binds | B33
binds | B34
binds | B35
binds | B36
binds | B37
binds | B38
binds | B39

From patent US20260209386A1 (MYTHIC THERAPEUTICS, published 2026)
